Experimental data: patent US6998116 (Genentech, dated 2006)

Molecular target: the molecule itself
Test: self-association: chemical crosslinking (sulfo-NHS/EDC), SDS-PAGE and silver staining
Experimental: Minor 48 kDa and 66 kDa bands were also observed, and probably represent soluble Apo-2 ligand homodimers and homotrimers. Chemical crosslinking of the purified $His10$-Apo-2 ligand by incubation with sulfo-NHS (5 mM) (Pierce Chemical) and EDC (Pierce Chemical) at 25 mM and 50 mM (FIG. 1D, lanes 1 and 2, respectively), shifted the protein into the 66 kDa band primarily.

B1: His10-Apo-2 ligand (purified soluble Apo-2 ligand residues 114-281 with N-terminal Met Gly His10 tag and enterokinase site) (ligand)
chain: MGHHHHHHHHHHSSGHIDDDDKHMVRERGPQRVAAHITGTRGRSNTLSSPNSKNEKALGRKINSWESSRSGHSFLSNLHLRNGELVIHEKGFYYIYSQTYFRFQEEIKENTKNDKQMVQYIYKYTSYPDPILLMKSARNSCWSKDAEYGLYSIYQGGIFELKENDRIFVSVTNEHLIDMDHEASFFGAFLVG
notes: Made in baculovirus-infected Sf9 cells, purified on Ni2+-NTA; also called His10-Apo-2 ECD
B1: binds.
